Results on 132 substances are retold here after the supplement of paper PMC12042874.

± gives the uncertainty stated by the source.

A short description of the series: amyloid nucleation score (Sup35N fusion, yeast selection) (log enrichment); library NNK3; higher = more nucleation; inactive = no reads after selection. In outline: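 Random libraries were run with three technical output replicates. In each, psi-negative yeast expressing Sup35N fused to peptides of 20 random codons were induced 24 hours with 100 μM copper sulfate and grown 7 days at 30°C on medium lacking adenine and uracil, and input and output plasmid inserts were Illumina-sequenced. The nucleation score is the DiMSum log enrichment of output over input reads, centred on the mode score of non-aggregating sequences, and sequences under 100 input reads were excluded.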
On to SRKCWAHKSIDVEVATSSAK, for which the amyloid nucleation score result was “inactive”. As for KEADDCVREAKFGAEFVTLR, the amyloid nucleation score entry was “inactive”. As for GFCICEYDRCTIFSYNHYGA, the figure is 2.94 ± 0.054. For NISLELDVFCTTNNMG the value was 1.74 ± 0.089; for NFCLVRGVNLANPFSNDCKS, “inactive”; for RTSFLGVID, “inactive”. For the substance LASVLEYESWLSLFIWQSKH, the amyloid nucleation score came out at 0.195 ± 0.34. TLSYRMFINKPSGMMCEHFN registered an amyloid nucleation score of 1.05 ± 0.11. As for LYWATGLGVNFKFNLCLDDA, the entry is “inactive”; as for GECTWTDVPMANSPRFVSEY, “inactive”. As to SCNNDPFTNDNASLVRLGRE, the amyloid nucleation score result is “inactive”. On to WGMLRTTT, for which the amyloid nucleation score is -0.567 ± 1.5. With TRPGLKWWVLRRMRHFGRRV, the amyloid nucleation score result was “inactive”. Consider PVWVKYIDYCPSRKHLSCRV, for which the amyloid nucleation score result was “inactive”. For VFVSS the value was -0.36 ± 1.

SGMDSKRKDSCLLCVHFHVS: the amyloid nucleation score entry was “inactive”.

SWYESKFVAVRWWIGDPLRG registered an amyloid nucleation score of 0.703 ± 0.26. In the case of CMVSSVKLNFIYIGYGDSGW, the amyloid nucleation score result is “inactive”. As for WASLGINR, the entry is “inactive”; as for NCNIWIEVQFTASDVIISWV, 1.69 ± 0.066; as for ASRSDCTRYIMTTMIWWHFP, “inactive”. VQFFNDRSLVDSQIGRLLLP: the amyloid nucleation score result was “inactive”.

For WPAVEKSLRRECFIVLRPFG, the amyloid nucleation score entry is “inactive”. On to VNENLTGFIGV, for which the amyloid nucleation score entry is “inactive”. Regarding ASLRYYGMAVVSSVYKMVVV, the amyloid nucleation score result was “inactive”. As for KVTLRNRFISMPNFMIEP, the entry is “inactive”; as for GICNQNIPQRGSMWLVSKTF, “inactive”. For SSVRRYHKLIKRRDYVAFNV the value was “inactive”; for TRLGYKKGFFMTSSSHRLMV, “inactive”. Take PSHWFISL: the amyloid nucleation score entry was “inactive”. Substance FHSSFSVYCPFNSMLASV returned an amyloid nucleation score of 0.005 ± 0.58.

On to NLCDVGRMLNCRRTSFGYMF, for which the amyloid nucleation score entry is “inactive”. For KYCNFTGVFWQTNIFTVVPM the value was 2.17 ± 0.087. For QMRYLFACFYT the value was “inactive”. As for RANRQQGVGTKQREGHNTVG, the entry is “inactive”. For the substance KCKANPEDNVRFLRLVYGAS, the amyloid nucleation score entry was “inactive”. As for VNLVLIISNPR, the entry is “inactive”. In the case of GLFFW, the amyloid nucleation score is -0.669 ± 0.74. As for ASYYF, the entry is “inactive”; as for VIGVNIWSCL, 1.29 ± 0.1. In the case of VTLCLSKLAF, the amyloid nucleation score came out at 1.26 ± 0.097. For WNYHFPSS the value was 0.339 ± 0.37. As for FLYSVL, the amyloid nucleation score result was “inactive”.

As to MRCSDGPPKWNHD, the amyloid nucleation score was -0.277 ± 0.88.

Consider GSSRSGKGHCMLRVSVFYCV, for which the amyloid nucleation score entry is “inactive”. As for IDALIYG, the entry is “inactive”. Regarding NMIWANEQE, the amyloid nucleation score entry is “inactive”. As for SVTLLFLKLYIR, the entry is “inactive”; as for QFVAFVYYVCLLWYTGALLI, “inactive”.

For YDCMSRVLAMARATMCRLGD, the amyloid nucleation score entry was “inactive”. For LQYHRLGQLPRQNRDTVLLL the value was “inactive”. As to IQDHFELFTNVGSYFQIQPL, the amyloid nucleation score entry was “inactive”. As for SGIAGECFAM, the amyloid nucleation score entry was “inactive”. As for SARYDFSYEYGRIKYRELDR, the figure is 1.1 ± 0.15; as for VSSCAC, “inactive”. For RESDMRSAWGSDVVCLLGDS the value was 1.11 ± 0.15; for VKVLWFSDCSSLYCHSVDGP, “inactive”; for SRVILL, “inactive”. As for ISDDICSFVAHSAILFGRQM, the amyloid nucleation score result was “inactive”.

Take SLDKSMSGKRSLVRADSTLS: the amyloid nucleation score is -0.046 ± 0.88. Take VSFVSSVIVDGMPEILSIRY: the amyloid nucleation score entry was “inactive”. For PVHGVGLAIRGSYGSYTGLL, the amyloid nucleation score entry was “inactive”. As for KCTGYAGCCWWT, the entry is “inactive”; as for SSMWCMDRSLYTNYEYQRVL, 0.054 ± 0.36. For YVSIWNHDADRGRC the value was “inactive”. For SNGELTVEHQGLQPLGEKRT the value was “inactive”; for TAKMSRVYCCCFSLFDVSLK, “inactive”; for CLSTPMVMLICFM, 0.904 ± 0.29. As to MHHVLYERERSY, the amyloid nucleation score entry is “inactive”. As for IIAGGTYECQIQIVYF, the figure is 1.22 ± 0.14; as for SDCGDFRLMVFQKSRRDSWN, “inactive”. As for GDCVLDPDLRSWDEW, the amyloid nucleation score result is “inactive”. As for IVYGPCYTLYVRCSVFSLSK, the figure is 2.31 ± 0.063; as for IHFMCMWVSNWYVLLVLKE, “inactive”. For HEKSIRVESMAVLIRPVTRS, the amyloid nucleation score result is “inactive”. Turning to VPVVGISYSYLILWFYLYVG, the amyloid nucleation score entry is “inactive”. As for WCLNGSMYLLAVSSG, the entry is “inactive”; as for SKESTNSVRCVFITVSPTRR, 0.976 ± 0.21. As for CHMCVVLAV, the entry is “inactive”; as for ESWNRKVLRHVSVEWHWLV, “inactive”. SSSRMFSSLFSVCIWVDTII: the amyloid nucleation score result was “inactive”. As for KMLNYM, the entry is “inactive”; as for PRNMVFYVFCNVSLTHAMYS, 0.845 ± 0.12; as for ISCMVFANHR, “inactive”. As for LRKRRGPK, the entry is “inactive”; as for PWGLGNSARCWCFFMGHCEA, -0.889 ± 2.5. As for AMMVRCFRDPKHEK, the entry is “inactive”; as for VRVLWI, “inactive”.

Turning to RRFGAFCIVPFERIVLDGWE, the amyloid nucleation score entry is “inactive”. Turning to QCVVVKCCWRDNRWLGSDLV, the amyloid nucleation score was -0.178 ± 0.54. Take NKKSSAMYCQGIFLTFILLV: the amyloid nucleation score result was “inactive”.

VTVIYNVDYCKETIFQMVVT yielded an amyloid nucleation score of 0.124 ± 0.48. As for QTMAAYLYSWNNTV, the entry is “inactive”; as for NGCTW, “inactive”; as for YIRVNTILDLD, “inactive”. For LFRIRQCFFYFSIFLVFSIK the value was “inactive”; for ADVLTNRIGPCIKEGIKLGI, “inactive”; for LFCIY, “inactive”. Turning to VIVICFIFLMNVIPIQACWT, the amyloid nucleation score entry is “inactive”. For VALAVMQKLNMRYIYNPCFV the value was “inactive”.

YMCSLLMIAKSMPGRG gave an amyloid nucleation score of 1.42 ± 0.14. As for LYWEPKLTSDFKRLDLRLVP, the entry is “inactive”; as for NCFEYLYPRVTDTELNRFFL, “inactive”. For ESDGCNNQFRHWSHCRSKNP the value was “inactive”. TAIRIMMRV: the amyloid nucleation score entry was “inactive”. For FYFDRTSVIMRLFSMWNNFG the value was “inactive”; for GVFDYTYGRLVAVFKGFGNY, “inactive”. On to NNLEFQFNWRLEVGFC, for which the amyloid nucleation score entry is “inactive”.

Regarding FVRLHSFA, the amyloid nucleation score result was “inactive”. As for FTCQSHAILGVDDDTWGRTN, the entry is “inactive”; as for WVDFFMFWGFAMNENKWFVH, “inactive”; as for AHVKLNDVFSWI, “inactive”. As for NTLDERDCRSKLFAFLLRPS, the entry is “inactive”. In the case of IISMFYSSKA, the amyloid nucleation score result was “inactive”. For LVLYYCVTG the value was “inactive”; for DTYGVVCEVYAILWMNRPLR, “inactive”. GILRQRIYFSM: the amyloid nucleation score result was “inactive”.

Consider IFGWLVDYLSFRVYKEDKGV, for which the amyloid nucleation score entry was “inactive”.

As to WCKCYMSSSWTC, the amyloid nucleation score entry was “inactive”. As for PRTQSYECVYGYSLKRNWLA, the amyloid nucleation score entry was “inactive”. On to LLSHYFHGMCMTHISGIFVM, for which the amyloid nucleation score result was “inactive”.

Turning to FSGFTVR, the amyloid nucleation score result was “inactive”. As for RWNDKWGVDVRSLIIIFVGS, the entry is “inactive”; as for PYRYLGARIRCMAKDSVSHI, “inactive”; as for NSQRASCSSLTYRSELYGNS, “inactive”. As to ISTLGYFAELVI, the amyloid nucleation score entry is “inactive”. For NSVRYLTWVAFLVCLMAYML the value was “inactive”; for NRVDIRLVKCYWSGDSGGVE, “inactive”; for KACWLYLIFIFFGWVYSKTI, 0.745 ± 0.25. For ATLRAFATVYFHLVTHMFNF the value was “inactive”; for YANFVRYNRLVKDRAVRSPK, “inactive”; for TLASTGYFFR, “inactive”.
